# Residue numbers refer to the chain shown, from its start.
# B1: A02_Rd4_6nM_C25 (antibody, V domains shown)
# VH: EVQLLESGGGLVQPGGSLRLSCAASGFTFSSYAMNWVRQAPGKGLEWVSAISDSGGSRWYADSVKGRFTISRDNSKNTLYLQMNSLRAEDTAVYYCARYWPMTPWGQGTLVTVSS
# VL: EIVLTQSPGTLSLSPGERATLSCRASQSVSSSYLAWYQQKPGQAPRLLMYDASIRATGIPDRFSGSGSGTDFTLTISRLEPEDFAVYYCQQYLDWPLTFGQGTKVEIK
# notes: IgG
# B2: C01_Rd4_6nM_C24 (antibody, V domains shown)
# VH: B1 VH with A33P, N35S, S52G, D53G, R58L, W59P, T103D, P104S
# VL: B1 VL with S31P, S32E, M49I, I54S, T57P, L93S, D94V
# notes: IgG
# B3: C01_Rd4_0.6nM_C27 (antibody, V domains shown)
# VH: B1 VH with A33P, N35S, S52G, D53G, R58L, W59P, T103D, P104S
# VL: B1 VL with S32T, M49I, I54S, T57P, L93S, D94R
# notes: IgG
# B4: COMBO_Rd4_0.6nM_C17 (antibody, V domains shown)
# VH: B1 VH with A33P, N35S, S52G, D53G, R58L, W59P, T103D, P104I
# VL: B1 VL with S28G, V29I, S32T, L93A, D94Y
# notes: IgG
# B5: A02_Rd4_6nM_C26 (antibody, V domains shown)
# VH: B1 VH with R58T, W59Y, T103S, P104L
# VL: B1 VL with S32L, L93Q, D94V
# notes: IgG
# B6: COMBO_Rd4_0.6nM_C14 (antibody, V domains shown)
# VH: B1 VH with A33P, N35S, S52G, D53G, R58L, W59P, T103D, P104I
# VL: B1 VL with S31A, S32L, L93Y, D94G
# notes: IgG
# B7: COMBO_Rd4_0.6nM_C20 (antibody, V domains shown)
# VH: B1 VH with A33P, N35S, S52G, D53G, R58L, W59P, T103D, P104S
# VL: B1 VL with S31Y, S32L, L93M, D94E
# notes: IgG
# B8: C01_Rd4_0.6nM_C16 (antibody, V domains shown)
# VH: B1 VH with A33P, N35S, S52G, D53G, R58L, W59P, T103D, P104S
# VL: B1 VL with S32T, M49I, I54S, T57P, L93S, D94S
# notes: IgG
# B9: COMBO_Rd4_0.6nM_C23 (antibody, V domains shown)
# VH: B1 VH with A33P, N35S, I51L, S52F, D53G, R58T, W59Y, T103D, P104S
# VL: B1 VL with A25P, S26R, L93Q
# notes: IgG
# B10: COMBO_Rd4_6nM_C08 (antibody, V domains shown)
# VH: B1 VH with A33P, N35S, S52G, D53G, G56T, S57W, R58T, W59Y, T103D, P104S
# VL: B1 VL with L93Q, D94K
# notes: IgG
# B11: C01_Rd4_6nM_C12 (antibody, V domains shown)
# VH: B1 VH with A33P, N35S, S52G, D53G, S57W, R58S, W59Y, T103D, P104S
# VL: B1 VL with R24W, A25L, S32T, M49I, I54S, T57P, L93S, D94E
# notes: IgG; also called PC1C12
# B12: COMBO_Rd4_6nM_C07 (antibody, V domains shown)
# VH: B1 VH with A33P, N35S, S52G, D53G, R58L, W59P, T103A, P104D
# VL: B1 VL with S28P, V29I, L93Q, D94G
# notes: IgG
# B13: C01_Rd4_0.6nM_C09 (antibody, V domains shown)
# VH: B1 VH with A33P, N35S, S52G, D53G, R58L, W59P, T103D, P104S
# VL: B1 VL with S32L, Y33F, M49I, I54S, T57P, L93S, D94A
# notes: IgG
# B14: C01_Rd4_6nM_C10 (antibody, V domains shown)
# VH: B1 VH with A33P, N35S, S52G, D53G, R58L, W59P, T103D, P104S
# VL: B1 VL with S32V, M49I, I54S, T57P, L93S, D94T
# notes: IgG
# B15: COMBO_Rd4_0.6nM_C04 (antibody, V domains shown)
# VH: B1 VH with A33P, N35S, I51H, S52I, D53G, R58T, W59Y, T103D, P104S
# VL: B1 VL with S32T, L93Q, D94S
# notes: IgG
# How the values were obtained:
# cynomolgus monkey BCMA = target: T1, cynomolgus monkey BCMA (cynomolgus monkey, UniProt A0A2K5UD97 1-53); experiment: SPR, IgG on chip, cyBCMA analyte
# T1 construct: Soluble analyte in SPR; construct not described; also called cyBCMA; Cyno BCMA
# Human BCMA (human) = Human BCMA (human) (UniProt Q02223); experiment: SPR, IgG on chip, huBCMA analyte
# T1 sequence (A0A2K5UD97 entry or part of it): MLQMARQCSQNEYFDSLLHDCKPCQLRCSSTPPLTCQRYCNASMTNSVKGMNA
binder,measurement,setting,value
B1,Kd,cynomolgus monkey BCMA,0.22 nM
same,koff,cynomolgus monkey BCMA,0.00033 s⁻¹
same,kon,cynomolgus monkey BCMA,1.5e+06 M⁻¹ s⁻¹
same,Kd,Human BCMA (human),0.065 nM
same,koff,Human BCMA (human),0.00018 s⁻¹
same,kon,Human BCMA (human),2.75e+06 M⁻¹ s⁻¹
B2,Kd,cynomolgus monkey BCMA,0.281 nM
same,koff,cynomolgus monkey BCMA,0.000891 s⁻¹
same,kon,cynomolgus monkey BCMA,3.17e+06 M⁻¹ s⁻¹
same,Kd,Human BCMA (human),0.467 nM
same,koff,Human BCMA (human),0.00348 s⁻¹
same,kon,Human BCMA (human),7.47e+06 M⁻¹ s⁻¹
B3,Kd,cynomolgus monkey BCMA,0.852 nM
same,koff,cynomolgus monkey BCMA,0.00285 s⁻¹
same,kon,cynomolgus monkey BCMA,3.34e+06 M⁻¹ s⁻¹
same,Kd,Human BCMA (human),0.303 nM
same,koff,Human BCMA (human),0.00374 s⁻¹
same,kon,Human BCMA (human),1.23e+07 M⁻¹ s⁻¹
B4,Kd,cynomolgus monkey BCMA,0.33 nM
same,koff,cynomolgus monkey BCMA,0.00101 s⁻¹
same,kon,cynomolgus monkey BCMA,3.06e+06 M⁻¹ s⁻¹
same,Kd,Human BCMA (human),0.092 nM
same,koff,Human BCMA (human),0.000801 s⁻¹
same,kon,Human BCMA (human),8.68e+06 M⁻¹ s⁻¹
B5,Kd,cynomolgus monkey BCMA,0.203 nM
same,koff,cynomolgus monkey BCMA,0.000448 s⁻¹
same,kon,cynomolgus monkey BCMA,2.21e+06 M⁻¹ s⁻¹
same,Kd,Human BCMA (human),0.033 nM
same,koff,Human BCMA (human),0.000139 s⁻¹
same,kon,Human BCMA (human),4.26e+06 M⁻¹ s⁻¹
B6,Kd,cynomolgus monkey BCMA,0.185 nM
same,koff,cynomolgus monkey BCMA,0.000645 s⁻¹
same,kon,cynomolgus monkey BCMA,3.48e+06 M⁻¹ s⁻¹
same,Kd,Human BCMA (human),0.038 nM
same,koff,Human BCMA (human),0.000328 s⁻¹
same,kon,Human BCMA (human),8.66e+06 M⁻¹ s⁻¹
B7,Kd,cynomolgus monkey BCMA,0.092 nM
same,koff,cynomolgus monkey BCMA,0.000284 s⁻¹
same,kon,cynomolgus monkey BCMA,3.09e+06 M⁻¹ s⁻¹
same,Kd,Human BCMA (human),0.019 nM
same,koff,Human BCMA (human),0.000146 s⁻¹
same,kon,Human BCMA (human),7.65e+06 M⁻¹ s⁻¹
B8,Kd,cynomolgus monkey BCMA,0.939 nM
same,koff,cynomolgus monkey BCMA,0.00464 s⁻¹
same,kon,cynomolgus monkey BCMA,4.95e+06 M⁻¹ s⁻¹
same,Kd,Human BCMA (human),0.407 nM
same,koff,Human BCMA (human),0.0063 s⁻¹
same,kon,Human BCMA (human),1.55e+07 M⁻¹ s⁻¹
B9,Kd,cynomolgus monkey BCMA,0.189 nM
same,koff,cynomolgus monkey BCMA,0.000531 s⁻¹
same,kon,cynomolgus monkey BCMA,2.81e+06 M⁻¹ s⁻¹
same,Kd,Human BCMA (human),0.028 nM
same,koff,Human BCMA (human),0.00021 s⁻¹
same,kon,Human BCMA (human),7.39e+06 M⁻¹ s⁻¹
B10,Kd,cynomolgus monkey BCMA,0.14 nM
same,koff,cynomolgus monkey BCMA,0.000428 s⁻¹
same,kon,cynomolgus monkey BCMA,3.06e+06 M⁻¹ s⁻¹
same,Kd,Human BCMA (human),0.019 nM
same,koff,Human BCMA (human),0.000169 s⁻¹
same,kon,Human BCMA (human),8.99e+06 M⁻¹ s⁻¹
B11,Kd,cynomolgus monkey BCMA,0.82 nM
same,koff,cynomolgus monkey BCMA,0.0037 s⁻¹
same,kon,cynomolgus monkey BCMA,4.51e+06 M⁻¹ s⁻¹
same,Kd,Human BCMA (human),0.535 nM
same,koff,Human BCMA (human),0.00649 s⁻¹
same,kon,Human BCMA (human),1.21e+07 M⁻¹ s⁻¹
B12,Kd,cynomolgus monkey BCMA,0.237 nM
same,koff,cynomolgus monkey BCMA,0.000934 s⁻¹
same,kon,cynomolgus monkey BCMA,3.94e+06 M⁻¹ s⁻¹
same,Kd,Human BCMA (human),0.035 nM
same,koff,Human BCMA (human),0.000371 s⁻¹
same,kon,Human BCMA (human),1.05e+07 M⁻¹ s⁻¹
B13,Kd,cynomolgus monkey BCMA,1.77 nM
same,koff,cynomolgus monkey BCMA,0.00936 s⁻¹
same,kon,cynomolgus monkey BCMA,5.28e+06 M⁻¹ s⁻¹
same,Kd,Human BCMA (human),0.545 nM
same,koff,Human BCMA (human),0.00825 s⁻¹
same,kon,Human BCMA (human),1.51e+07 M⁻¹ s⁻¹
B14,Kd,cynomolgus monkey BCMA,0.493 nM
same,koff,cynomolgus monkey BCMA,0.00219 s⁻¹
same,kon,cynomolgus monkey BCMA,4.44e+06 M⁻¹ s⁻¹
same,Kd,Human BCMA (human),0.162 nM
same,koff,Human BCMA (human),0.00212 s⁻¹
same,kon,Human BCMA (human),1.31e+07 M⁻¹ s⁻¹
B15,Kd,cynomolgus monkey BCMA,0.039 nM
same,koff,cynomolgus monkey BCMA,0.000137 s⁻¹
same,kon,cynomolgus monkey BCMA,3.52e+06 M⁻¹ s⁻¹
same,Kd,Human BCMA (human),0.015 nM
same,koff,Human BCMA (human),0.000158 s⁻¹
same,kon,Human BCMA (human),1.07e+07 M⁻¹ s⁻¹
